Source: article PMC7367873, “Dissecting the sequence determinants for dephosphorylation by the catalytic subunits of phosphatases PP1 and PP2A” (Nature Communications, 2020)

Experiments:
GFP-14-3-3β = GFP-14-3-3β co-IP with LC-MS/MS, untreated GFP-14-3-3β versus GFP control (14-3-3 interactome); format: binding, human; conditions: log2 difference; pairwise comparison untreated vs GFP, label-free quantification, 3 replicates each
[1] = tested on: GFP-14-3-3β and its binding proteins; assay: GFP-14-3-3β co-IP with LC-MS/MS label-free quantification, untreated versus PP1c-treated; parameters: species or system human; conditions: log2 difference; pairwise comparison PP1 vs untreated, label-free quantification, 3 replicates each

Molecule | Difference (log2), untreated vs GFP (GFP-14-3-3β) | Difference (log2), PP1 vs untreated [1]
MAP7 (protein, UniProt Q14244 2-749, looked up) Ensconsin: AELGAGGDGHRGGDGAVRSETAPDSYKVQDKKNASSRPASAISGQNNNHSGNKPDPPPVLRVDDRQRLARERREEREKQLAAREIVWLEREERARQHYEKHLEERKKRLEEQRQKEERRRAAVEEKRRQRLEEDKERHEAVVRRTMERSQKPKQKHNRWSWGGSLHGSPSIHSADPDRRSVSTMNLSKYVDPVISKRLSSSSATLLNSPDRARRLQLSPWESSVVNRLLTPTHSFLARSKSTAALSGEAASCSPIIMPYKAAHSRNSMDRPKLFVTPPEGSSRRRIIHGTASYKKERERENVLFLTSGTRRAVSPSNPKARQPARSRLWLPSKSLPHLPGTPRPTSSLPPGSVKAAPAQVRPPSPGNIRPVKREVKVEPEKKDPEKEPQKVANEPSLKGRAPLVKVEEATVEERTPAEPEVGPAAPAMAPAPASAPAPASAPAPAPVPTPAMVSAPSSTVNASASVKTSAGTTDPEEATRLLAEKRRLAREQREKEERERREQEELERQKREELAQRVAEERTTRREEESRRLEAEQAREKEEQLQRQAEERALREREEAERAQRQKEEEARVREEAERVRQEREKHFQREEQERLERKKRLEEIMKRTRRTEATDKKTSDQRNGDIAKGALTGGTEVSALPCTTNAPGNGKPVGSPHVVTSHQSKVTVESTPDLEKQPNENGVSVQNENFEEIINLPIGSKPSRLDVTNSESPEIPLNPILAFDDEGTLGPLPQVDGVQTQQTAEVI | -0.1668 | 1.312
P4HA1 (protein, UniProt P13674 18-534, looked up) Prolyl 4-hydroxylase subunit …: HPGFFTSIGQMTDLIHTEKDLVTSLKDYIKAEEDKLEQIKKWAEKLDRLTSTATKDPEGFVGHPVNAFKLMKRLNTEWSELENLVLKDMSDGFISNLTIQRQYFPNDEDQVGAAKALLRLQDTYNLDTDTISKGNLPGVKHKSFLTAEDCFELGKVAYTEADYYHTELWMEQALRQLDEGEISTIDKVSVLDYLSYAVYQQGDLDKALLLTKKLLELDPEHQRANGNLKYFEYIMAKEKDVNKSASDDQSDQKTTPKKKGVAVDYLPERQKYEMLCRGEGIKMTPRRQKKLFCRYHDGNRNPKFILAPAKQEDEWDKPRIIRFHDIISDAEIEIVKDLAKPRLRRATISNPITGDLETVHYRISKSAWLSGYENPVVSRINMRIQDLTGLDVSTAEELQVANYGVGGQYEPHFDFARKDEPDAFKELGTGNRIATWLFYMSDVSAGGATVFPEVGASVWPKKGTAVFWYNLFASGEGDYSTRHAACPVLVGNKWVSNKWLHERGQEFRRPCTLSELE | -0.8349 | 1.3164
SLC43A3 (protein, UniProt Q8NBI5 1-491, looked up) Equilibrative nucleobase …: MAGQGLPLHVATLLTGLLECLGFAGVLFGWPSLVFVFKNEDYFKDLCGPDAGPIGNATGQADCKAQDERFSLIFTLGSFMNNFMTFPTGYIFDRFKTTVARLIAIFFYTTATLIIAFTSAGSAVLLFLAMPMLTIGGILFLITNLQIGNLFGQHRSTIITLYNGAFDSSSAVFLIIKLLYEKGISLRASFIFISVCSTWHVARTFLLMPRGHIPYPLPPNYSYGLCPGNGTTKEEKETAEHENRELQSKEFLSAKEETPGAGQKQELRSFWSYAFSRRFAWHLVWLSVIQLWHYLFIGTLNSLLTNMAGGDMARVSTYTNAFAFTQFGVLCAPWNGLLMDRLKQKYQKEARKTGSSTLAVALCSTVPSLALTSLLCLGFALCASVPILPLQYLTFILQVISRSFLYGSNAAFLTLAFPSEHFGKLFGLVMALSAVVSLLQFPIFTLIKGSLQNDPFYVNVMFMLAILLTFFHPFLVYRECRTWKESPSAIA | -0.216 | 1.303
STT3B (protein, UniProt Q8TCJ2 2-826, looked up) Dolichyl-diphosphooligosacchar …: AEPSAPESKHKSSLNSSPWSGLMALGNSRHGHHGPGAQCAHKAAGGAAPPKPAPAGLSGGLSQPAGWQSLLSFTILFLAWLAGFSSRLFAVIRFESIIHEFDPWFNYRSTHHLASHGFYEFLNWFDERAWYPLGRIVGGTVYPGLMITAGLIHWILNTLNITVHIRDVCVFLAPTFSGLTSISTFLLTRELWNQGAGLLAACFIAIVPGYISRSVAGSFDNEGIAIFALQFTYYLWVKSVKTGSVFWTMCCCLSYFYMVSAWGGYVFIINLIPLHVFVLLLMQRYSKRVYIAYSTFYIVGLILSMQIPFVGFQPIRTSEHMAAAGVFALLQAYAFLQYLRDRLTKQEFQTLFFLGVSLAAGAVFLSVIYLTYTGYIAPWSGRFYSLWDTGYAKIHIPIIASVSEHQPTTWVSFFFDLHILVCTFPAGLWFCIKNINDERVFVALYAISAVYFAGVMVRLMLTLTPVVCMLSAIAFSNVFEHYLGDDMKRENPPVEDSSDEDDKRNQGNLYDKAGKVRKHATEQEKTEEGLGPNIKSIVTMLMLMLLMMFAVHCTWVTSNAYSSPSVVLASYNHDGTRNILDDFREAYFWLRQNTDEHARVMSWWDYGYQIAGMANRTTLVDNNTWNNSHIALVGKAMSSNETAAYKIMRTLDVDYVLVIFGGVIGYSGDDINKFLWMVRIAEGEHPKDIRESDYFTPQGEFRVDKAGSPTLLNCLMYKMSYYRFGEMQLDFRTPPGFDRTRNAEIGNKDIKFKHLEEAFTSEHWLVRIYKVKAPDNRETLDHKPRVTNIFPKQKYLSKKTTKRKRGYIKNKLVFKKGKKISKKTV | -0.7683 | 1.284
